Source: patent US20250136688A1 (Janssen / Centocor, published 2025)

Legend:
[1] = target: T1, ectonucleotide pyrophosphatase/phosphodiesterase family member 3 (ENPP3) (human, UniProt O14638 1-875); test: flow cytometry on CHO ENPP3 OE cells
T1 construct: whole, on cells; also called CD203c
T1 sequence (looked up): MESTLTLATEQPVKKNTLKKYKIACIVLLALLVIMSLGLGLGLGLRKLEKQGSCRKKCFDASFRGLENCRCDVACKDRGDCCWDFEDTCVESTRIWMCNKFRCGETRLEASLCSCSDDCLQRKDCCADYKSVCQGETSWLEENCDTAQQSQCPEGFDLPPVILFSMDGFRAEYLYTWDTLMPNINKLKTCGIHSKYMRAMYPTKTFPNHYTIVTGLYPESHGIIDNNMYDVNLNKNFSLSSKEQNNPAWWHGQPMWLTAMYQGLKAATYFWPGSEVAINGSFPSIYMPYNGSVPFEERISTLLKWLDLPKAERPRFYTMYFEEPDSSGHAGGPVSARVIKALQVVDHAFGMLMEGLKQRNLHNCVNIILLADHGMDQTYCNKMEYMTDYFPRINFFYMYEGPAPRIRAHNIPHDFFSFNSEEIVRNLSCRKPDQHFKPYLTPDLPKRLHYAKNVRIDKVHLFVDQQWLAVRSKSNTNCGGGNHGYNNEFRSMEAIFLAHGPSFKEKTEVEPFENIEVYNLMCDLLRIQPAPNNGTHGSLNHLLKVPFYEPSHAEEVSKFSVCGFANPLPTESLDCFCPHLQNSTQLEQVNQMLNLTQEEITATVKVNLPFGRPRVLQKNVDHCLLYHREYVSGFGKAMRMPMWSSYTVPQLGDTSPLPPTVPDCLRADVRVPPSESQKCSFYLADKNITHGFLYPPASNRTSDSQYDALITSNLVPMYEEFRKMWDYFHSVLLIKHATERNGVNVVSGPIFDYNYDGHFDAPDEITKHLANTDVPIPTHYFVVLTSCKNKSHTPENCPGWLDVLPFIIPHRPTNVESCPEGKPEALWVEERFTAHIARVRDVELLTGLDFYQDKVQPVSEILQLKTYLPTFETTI

Human CD3 epsilon [2] = target: T2, Human CD3 epsilon (human, UniProt P07766 23-207); test: flow cytometry on T cells of healthy human donor 110048457
T2 construct: Stood on human T cells (pan-T cells, isolated donor T cells) as part of the TCR/CD3 complex; the other chains of the complex are not written here; also called CD3ε; CD3R

[3] = target: T1, ectonucleotide …; test: cell-based or functional assay
[4] = target: T1, ectonucleotide …; test: cell-based or functional assay; remark: listed apart in the source
Human CD3 epsilon [5] = target: T2, Human CD3 epsilon; test: flow cytometry on T cells of healthy human donor 888668965
Human CD3 epsilon [6] = target: T2, Human CD3 epsilon; test: flow cytometry on T cells of healthy human donor 110040278
[7] = target: T1, ectonucleotide …; test: flow cytometry on VMRCRCW cells
[8] = target: T3, ectonucleotide pyrophosphatase/phosphodiesterase family member 1 (ENPP1) (human, UniProt P22413 1-925); test: flow cytometry on CHOK1 cells overexpressing ENPP1
T3 construct: whole, on cells
T3 sequence (looked up): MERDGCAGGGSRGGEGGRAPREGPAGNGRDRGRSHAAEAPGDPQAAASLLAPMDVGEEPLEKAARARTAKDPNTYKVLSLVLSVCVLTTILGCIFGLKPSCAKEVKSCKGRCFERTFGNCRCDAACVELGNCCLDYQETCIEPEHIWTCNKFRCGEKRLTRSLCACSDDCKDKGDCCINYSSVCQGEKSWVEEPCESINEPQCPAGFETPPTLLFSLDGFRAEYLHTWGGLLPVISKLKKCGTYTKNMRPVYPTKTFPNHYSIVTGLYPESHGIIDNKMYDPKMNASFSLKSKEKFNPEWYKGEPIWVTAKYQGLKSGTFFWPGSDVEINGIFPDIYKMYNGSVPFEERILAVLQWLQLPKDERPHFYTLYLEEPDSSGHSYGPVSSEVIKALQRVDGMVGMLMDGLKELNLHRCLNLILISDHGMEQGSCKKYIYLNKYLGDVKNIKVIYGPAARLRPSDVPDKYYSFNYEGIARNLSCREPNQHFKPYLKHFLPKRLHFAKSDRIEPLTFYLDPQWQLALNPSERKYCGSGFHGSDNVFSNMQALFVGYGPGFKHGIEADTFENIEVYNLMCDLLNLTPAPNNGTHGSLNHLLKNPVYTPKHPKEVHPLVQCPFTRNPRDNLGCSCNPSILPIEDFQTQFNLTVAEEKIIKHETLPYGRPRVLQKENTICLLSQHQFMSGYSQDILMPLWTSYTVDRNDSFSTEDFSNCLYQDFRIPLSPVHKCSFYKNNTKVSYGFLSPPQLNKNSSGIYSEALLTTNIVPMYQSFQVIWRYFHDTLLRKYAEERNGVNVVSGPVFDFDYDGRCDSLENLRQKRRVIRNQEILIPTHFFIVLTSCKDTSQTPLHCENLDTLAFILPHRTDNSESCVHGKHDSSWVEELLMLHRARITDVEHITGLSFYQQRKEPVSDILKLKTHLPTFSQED

Human CD3 epsilon [9] = target: T2, Human CD3 epsilon; test: flow cytometry on T cells, average of 6 healthy human donors

T2 sequence (P07766 23-207 limits assumed): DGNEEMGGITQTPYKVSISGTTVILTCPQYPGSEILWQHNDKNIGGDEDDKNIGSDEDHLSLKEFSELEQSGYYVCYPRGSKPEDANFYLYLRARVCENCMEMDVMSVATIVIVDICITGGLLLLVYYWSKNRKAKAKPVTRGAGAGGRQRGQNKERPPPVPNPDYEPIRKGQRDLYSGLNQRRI

B1: NPP3B815 (NPP3B56×CD3B2030-N106A-spFv) (bispecific antibody, human IgG1, kappa, L234A L235A)
chain: EIVLTQSPATLSASPGERVTLSCSASSSVSYMNWYQQKPGCAPRRWIYDSSKLASGVPARFSGSGSGRDYTLTISSLEPEDFAVYYCQQWSRNPPTFGGGTKVEIKGGGSGGSGGCPPCGGSGGQVQLVQSGAEVKKPGSSVKVSCKASGYTFTRSTMHWVKQAPGQGLEWIGYINPSSAYTNYNQKFQGRVTLTADKSTSTAYMELSSLRSEDTAVYYCASPQVHYDYAGFPYWGCGTLVTVSSEPKSSDKTHTCPPCPAPEAAGGPSVFLFPPKPKDTLMISRTPEVTCVVVSVSHEDPEVKFNWYVDGVEVHNAKTKPREEQYNSTYRVVSVLTVLHQDWLNGKEYKCKVSNKALPAPIEKTISKAKGQPREPQVYTLPPSREEMTKNQVSLWCLVKGFYPSDIAVEWESNGQPENNYKTTPPVLDSDGSFFLYSKLTVDKSRWQQGNVFSCSVMHEALHNHYTQKSLSLSPGK
heavy: EVQLVESGGGRVKPGGSLRLSCAASGFTFSDYSMNWVRQAPGKGLEWVSSISSISSYVKYADSVKGRFTMSRDNAKNSLFLQMNSLRDEDMAVYYCARGHYFDYWGQGTLVTVSSASTKGPSVFPLAPSSKSTSGGTAALGCLVKDYFPEPVTVSWNSGALTSGVHTFPAVLQSSGLYSLSSVVTVPSSSLGTQTYICNVNHKPSNTKVDKKVEPKSCDKTHTCPPCPAPEAAGGPSVFLFPPKPKDTLMISRTPEVTCVVVSVSHEDPEVKFNWYVDGVEVHNAKTKPREEQYNSTYRVVSVLTVLHQDWLNGKEYKCKVSNKALPAPIEKTISKAKGQPREPQVYTLPPSREEMTKNQVSLSCAVKGFYPSDIAVEWESNGQPENNYKTTPPVLDSDGSFFLVSKLTVDKSRWQQGNVFSCSVMHEALHNRFTQKSLSLSPGK
light: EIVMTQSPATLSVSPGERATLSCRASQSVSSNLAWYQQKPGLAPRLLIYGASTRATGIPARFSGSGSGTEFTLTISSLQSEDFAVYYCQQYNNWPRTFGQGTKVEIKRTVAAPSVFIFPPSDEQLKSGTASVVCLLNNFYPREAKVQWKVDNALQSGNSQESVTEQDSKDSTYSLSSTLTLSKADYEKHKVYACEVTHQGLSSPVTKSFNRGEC
notes: Heavy Chain 1 = anti-CD3 spFv-Fc (knob); Heavy Chain 2 and Light Chain = anti-ENPP3 Fab arm NPP3B56 (hole); IgG1 with L234A, L235A, D265S; also called ENPP3×CD3
- EC50 [1]: 0.51 nM
- EC50 (Human CD3 epsilon [2]): 132 nM
- killing EC50 with PBMCs, A704, donor 110040278, E:T 3:1 [3]: 0.052 nM
- killing EC50 with PBMCs, A704, donor 110040278, E:T 5:1 [3]: 0.028 nM
- killing EC50 with PBMCs, A704, donor 110042496, E:T 3:1 [3]: 0.097 nM
- killing EC50 with PBMCs, A704, donor 110042496, E:T 5:1 [3]: 0.061 nM
- killing EC50 with PBMCs, A704, donor 110042593, E:T 1:1 [3]: 0.124 nM
- killing EC50 with PBMCs, A704, donor 110042593, E:T 3:1 [3]: 0.039 nM
- killing EC50 with PBMCs, A704, donor 110042593, E:T 5:1 [3]: 0.015 nM
- killing EC50 with PBMCs, A704, donor 110044049, E:T 1:1 [3]: 0.131 nM
- killing EC50 with PBMCs, A704, donor 110044049, E:T 3:1 [3]: 0.052 nM
- killing EC50 with PBMCs, A704, donor 110044049, E:T 5:1 [3]: 0.016 nM
- killing EC50 with PBMCs, A704, donor 110048457, E:T 3:1 [3]: 0.046 nM
- killing EC50 with PBMCs, A704, donor 110048457, E:T 5:1 [3]: 0.013 nM
- killing EC50 with PBMCs, A704, donor 888668965, E:T 1:1 [3]: 0.107 nM
- killing EC50 with PBMCs, A704, donor 888668965, E:T 3:1 [3]: 0.036 nM
- killing EC50 with PBMCs, A704, donor 888668965, E:T 5:1 [3]: 0.015 nM
- killing EC50 with PBMCs, VMRCRCW, donor 110040278, E:T 5:1 [3]: 0.033 nM
- killing EC50 with PBMCs, VMRCRCW, donor 110042496, E:T 5:1 [3]: 0.065 nM
- killing EC50 with PBMCs, VMRCRCW, donor 110042593, E:T 5:1 [3]: 0.033 nM
- killing EC50 with PBMCs, VMRCRCW, donor 110044049, E:T 5:1 [3]: 0.051 nM
- killing EC50 with PBMCs, VMRCRCW, donor 110048457, E:T 5:1 [3]: 0.063 nM
- killing EC50 with PBMCs, VMRCRCW, donor 888668965, E:T 5:1 [3]: 0.062 nM
- T-cell activation (Flow Cytometry) EC50, A704 [4]: 0.011 nM
- T-cell activation (Flow Cytometry) EC50, HepG2 [4]: 0.041 nM
- T-cell activation (Flow Cytometry) EC50, VMRCRCW [4]: 0.018 nM
- Tumor cell killing (Incucyte) EC50, A704 [4]: 0.03 nM
- Tumor cell killing (Incucyte) EC50, HepG2 [4]: 0.53 nM
- Tumor cell killing (Incucyte) EC50, TUHR4TKB [4]: 0.05 nM
- Tumor cell killing (Incucyte) EC50, TUHR10TKB [4]: 0.02 nM
- Tumor cell killing (Incucyte) EC50, VMRCRCW [4]: 0.13 nM
- EC50 (Human CD3 epsilon [5]): 197 nM
- EC50 (Human CD3 epsilon [6]): 253 nM
- EC50 [7]: 0.5 nM
- binding result [8]: no binding
- EC50 (Human CD3 epsilon [9]): 177 nM
